Results as given in publication PMC7019173, “Stapled peptide targeting the CDK4/Cyclin D interface combined with Abemaciclib inhibits KRAS mutant lung cancer growth” (Theranostics, 2020).
Like-named read-outs stand apart in the source and are kept apart here. Where a SMILES comes first, the peptide text is derived from it. Bridges are numbered along the chain shown (N, C = ends). [ ]: non-standard residue; d: D form. S5 = C=CCCC[C@](C)(N)C(=O)O; TP2‑Rho = not defined here

What was measured:
[1] = circular dichroism; details: 50 mM phosphate buffer; pH 7; 20 °C; 100 uM
[2] = target: C4D peptide derived from the alpha 5 helix of cyclin D1 (Homo sapiens, UniProt P24385); test: Fluorescence titration of TP2-Rho-labelled C4D peptide with CDK4 C helix-derived peptides; format: binding; details: 200 nM TP2-Rho labelled C4D peptide, PBS, 30 °C, average of n = 3 to 5 ± SD
Description: TP2-Rho-labelled peptides: peptides were labelled on a unique cysteine residue with a five-fold molar excess of TP2-Rho-maleimide overnight, and then purified from free dye on NAP-5 columns (GE Healthcare), as described previously.
(§1) Fluorescence titration assays were performed in 96-well plates in a thermostated chamber (Clariostar spectrofluorimeter, BMG) at 30 °C in 200 μL phosphate buffer saline using 200 nM fluorescently-labelled peptides or proteins. The fluorescence emission intensity of TP2-Rho-labelled peptides was recorded at 614 nm following excitation at 510 nm. The fluorescence emission intensity of mant-ATP was measured at […]. Data analysis was performed using the GraFit Software (Erathicus Ltd) and curve fitting was performed using a quadratic equation, as described previously. Experiments were performed in triplicate, and Kd values represent the average calculated for n = 3 to 5 experiments, together with standard deviation.

[3] = design: species or system mice; details: mouse, in vivo
Description: Five weeks after the inoculation of H358-Luc cells, when bioluminescent orthotopic tumours were detected, nude mice were randomly divided into 6 groups. Mice were treated with vehicle (control, n = 14), Abemaciclib (n = 10), or P2-short administered intravenously (n = 10) or intrapulmonary (n = 10), or treated with a combination of Abemaciclib and P2-short (intravenous administration of P2-short, n = 10; intrapulmonary administration of P2-short, n = 10). Mice were daily orally treated for three weeks with 10 mg/kg Abemaciclib. P2-short was either administered via the tail vein three times a week for three weeks under anesthesia (isoflurane/air 4% for induction and 1.5% thereafter) with 200 μL at 0.9 mg/kg, or administered intrapulmonary two times a week for three weeks under anesthesia with 50 μL at 0.45 mg/kg. Intrapulmonary administration of P2-short was performed using a catheter connected to a FMJ-250-high-pressure syringe (Penn-Centur, Inc) and introduced into the trachea of the animals using a dedicated laryngoscope. Mice were observed and weighed three times a week. Tumour growth was followed by in vivo bioluminescence imaging (IVIS Kinetic). After 3 weeks, mice were sacrificed, and blood samples were collected by cardiac puncture for biochemistry analysis ([…]). Lungs were collected for immunohistochemistry analyses. […]

[4] = tested on: A549 cells; test: cells; format: cell-based, human; details: 48 hours, crystal violet, at least two independent experiments (n=4/experiment) ± SD, Grafit; read-out: IC50 A549 cell proliferation
Description: Non-small cell lung cancer A549, H358 and PC9 cell lines used in this study. Cell culture media, serum and antibiotics were purchased from Life Technologies. All cell lines were cultured in RPMI + Glutamax supplemented with 10% FCS, 100 units/mL penicillin (G sodium salt) and 100 µg/mL streptomycin at 37 °C in an atmosphere containing 5% CO2. […] Stock solutions of drugs were prepared in DMSO and freshly diluted in PBS to the desired concentration prior to use, then added onto unsynchronized cells cultured to subconfluency (60-70%), which were then further incubated for 24, 48 or 72 h. Cell proliferation was determined by crystal violet assay following treatment with drugs. Cells were washed with PBS, fixed with 3.7% formaldehyde for 10 min and then incubated with 0.1% crystal violet dye for 30 min. After rinsing, crystals were dissolved in 10% acetic acid and viability was determined by measuring absorbance at 595 nm.

[5] = design: species or system mice; details: mouse, in vivo, iv
[6] = Circular dichroism, determination of alpha helical content; format: physicochemical
Description: CD experiments were carried out using a Jasco J815 spectropolarimeter. Spectra were recorded with 100 μM of peptides dissolved in phosphate buffer 50 mM, pH 7, using a 1 mm pathlength CD cuvette at 20 °C, over a wavelength range of 190-260 nm. Continuous scanning mode was used, with a response of 1.0 s with 0.1 nm steps and a bandwidth of 2 nm. The signal to noise ratio was improved by acquiring each spectrum over an average of two scans. Baseline was corrected by subtracting the background from the sample spectrum.
Alpha helical content was determined using the following equation: % Helix = ([θ])obs * 100)/(-39500 * (1-2.57/n), where ([θ])obs is the mean residue ellipticity at 222 nm and n the number of peptide bonds.

[7] = target: T1, CDK4/cyclin D1 (Homo sapiens, UniProt P11802); test: Fluorescence titration of mant-ATP with CDK4/cyclin D1 with or without P2short; format: binding; details: 200 nM mant-ATP
T1 construct: GST (N); made in house; host or cells: E. coli
T1 sequence (P11802 whole entry): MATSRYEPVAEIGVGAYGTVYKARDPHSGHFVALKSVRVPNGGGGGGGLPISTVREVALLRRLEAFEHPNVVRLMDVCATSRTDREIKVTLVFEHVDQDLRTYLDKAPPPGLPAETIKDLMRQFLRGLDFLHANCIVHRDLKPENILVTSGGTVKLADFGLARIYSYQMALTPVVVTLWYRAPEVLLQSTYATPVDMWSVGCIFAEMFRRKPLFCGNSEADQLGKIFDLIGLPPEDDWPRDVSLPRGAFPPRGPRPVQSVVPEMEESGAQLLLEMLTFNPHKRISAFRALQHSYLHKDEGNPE
T1 sequence (P24385 whole entry partner): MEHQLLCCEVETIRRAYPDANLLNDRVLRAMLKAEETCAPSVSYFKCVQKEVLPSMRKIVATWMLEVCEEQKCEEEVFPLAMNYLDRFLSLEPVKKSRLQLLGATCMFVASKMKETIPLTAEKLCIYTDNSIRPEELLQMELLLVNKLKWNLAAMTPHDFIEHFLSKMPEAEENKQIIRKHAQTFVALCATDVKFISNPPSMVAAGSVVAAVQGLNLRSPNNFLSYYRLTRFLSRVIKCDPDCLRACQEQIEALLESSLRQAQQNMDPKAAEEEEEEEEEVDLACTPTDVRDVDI
Description: Recombinant GST-CDK4 and GST-cyclin D1 were expressed in E. coli by IPTG induction and purified by FPLC chromatography as described previously.
as §1

[8] = target: TP2-Rho-labelled CDK4 C helix peptide (unstapled) (human); test: other fluorescence titration; 200 nM TP2-Rho-labelled peptide titrated with GST-cyclins or GST; 96-well plates, 30 °C, 200 μL phosphate buffer saline; quadratic fit; average Kd of n = 3 to 5 experiments
[9] = target: GST-cyclin E (UniProt P24864 1-410); test: as above; details: both partners purified
[10] = target: T2, GST-cyclin Y (UniProt Q8ND76 1-341); test: as above; details: both partners purified
T2 construct: cyclin Y; source: E. coli BL21, purified (GSTrap HP, desalting column)
T2 sequence (Q8ND76 whole entry): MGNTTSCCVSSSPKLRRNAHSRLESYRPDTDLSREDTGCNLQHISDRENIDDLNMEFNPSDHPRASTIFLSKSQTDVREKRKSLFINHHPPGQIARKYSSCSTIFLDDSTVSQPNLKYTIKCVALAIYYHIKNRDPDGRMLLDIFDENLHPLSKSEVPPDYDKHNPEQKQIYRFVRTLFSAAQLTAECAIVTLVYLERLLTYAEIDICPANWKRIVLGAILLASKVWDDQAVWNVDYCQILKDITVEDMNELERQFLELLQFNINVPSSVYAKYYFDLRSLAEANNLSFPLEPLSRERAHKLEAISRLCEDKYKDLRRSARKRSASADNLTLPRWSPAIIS

[11] = target: T3, GST-cyclin D1 (UniProt P24385 1-295); test: as above; details: both partners purified
T3 construct: cyclin D1; also called recombinant cyclin; source: E. coli, IPTG induction, purified by FPLC chromatography
T3 sequence (P24385 whole entry): as the sequence (P24385 whole entry partner) above

[12] = target: GST-cyclin A (UniProt P20248 1-432); test: as above; details: both partners purified

CC[C@H](C)[C@H](NC(=O)[C@@H]1CCCN1C(=O)[C@H](CC(C)C)NC(=O)CNC(C)=O)C(=O)N[C@@]1(C)CCCC=CCCC[C@@](C)(C(=O)N[C@H](C(=O)N[C@@H](C)C(=O)N[C@@H](CC(C)C)C(=O)N[C@@H](CC(C)C)C(=O)N[C@@H](CCCNC(=N)N)C(=O)N[C@@H](CCCNC(=N)N)C(=O)N[C@@H](CC(C)C)C(=O)N[C@@H](CCC(=O)O)C(=O)N[C@@H](C)C(=O)N[C@@H](Cc2ccccc2)C(=O)N[C@@H](CCC(=O)O)C(N)=O)C(C)C)NC(=O)[C@H](CCCNC(=N)N)NC(=O)[C@H](C(C)C)NC(=O)[C@H]([C@@H](C)O)NC1=O [P1] (Ac-GLPI[S5]TVR[S5]VALLRRLEAFE-NH2; staple 5-9)
helicity [1]: 16% | Kd [2]: 140 ± 77 nM

CC(=O)N[C@@H](CS)C(=O)N[C@@H](C)C(=O)N1CCC[C@H]1C(=O)N[C@@H](C)C(=O)N[C@@H](CO)C(=O)N[C@H](C(=O)N[C@@H](C)C(=O)N[C@@H](C)C(=O)N[C@@]1(C)CCCC=CCCC[C@@](C)(C(=O)N[C@@H](C)C(=O)N[C@@H](CCCNC(=N)N)C(=O)N[C@@H](CC(C)C)C(N)=O)NC(=O)[C@H](CC(C)C)NC(=O)[C@H](C)NC(=O)[C@H](CCCCN)NC1=O)[C@@H](C)O (Ac-CAPASTAA[S5]KAL[S5]ARL-NH2; staple 9-13)
helicity [1]: 34%

CC[C@H](C)[C@H](NC(=O)[C@@H]1CCCN1C(=O)[C@H](CC(C)C)NC(=O)[C@H](C)N)C(=O)N[C@@H](CO)C(=O)N[C@H](C(=O)N[C@H](C(=O)N[C@@H](CCCNC(=N)N)C(=O)N[C@@]1(C)CCCC=CCCC[C@@](C)(C(=O)N[C@@H](CCCNC(=N)N)C(=O)N[C@@H](CCCNC(=N)N)C(=O)N[C@@H](CC(C)C)C(N)=O)NC(=O)[C@H](CC(C)C)NC(=O)[C@H](C)NC(=O)[C@H](C(C)C)NC1=O)C(C)C)[C@@H](C)O [P2shortA] (H-ALPISTVR[S5]VAL[S5]RRL-NH2; staple 9-13)
lung damage by HE staining [3]: did not reveal any lung damage | helicity [1]: 74% | IC50 [4]: 10800 ± 260 nM | blood distribution half-life [5]: 0.4 h | blood elimination half-life [5]: 39 h

CC[C@H](C)[C@H](NC(=O)[C@@H]1CCCN1C(=O)[C@H](CC(C)C)NC(C)=O)C(=O)N[C@@H](CO)C(=O)N[C@H](C(=O)N[C@H](C(=O)N[C@@H](CCCNC(=N)N)C(=O)N[C@@H](CCC(=O)O)C(=O)N[C@H](C(=O)N[C@@H](C)C(=O)N[C@@H](CC(C)C)C(=O)N[C@@H](CC(C)C)C(=O)N[C@@H](CCCNC(=N)N)C(=O)N[C@@H](CCCNC(=N)N)C(=O)N[C@@H](CC(C)C)C(N)=O)C(C)C)C(C)C)[C@@H](C)O [CDK4 C peptide short] (Ac-LPISTVREVALLRRL-NH2)
helicity [1]: 14% | % helix (alpha helical content) ([6]; CD, 100 μM peptide in phosphate buffer 50 mM, pH 7, 20 °C, from mean residue ellipticity at 222 nm): 14% | conformation in solution (CD) ([6]; phosphate buffer): disordered in solution

mant-ATP
Kd ([7]; P2short 2-fold excess, read-out: Kd of mant-ATP for CDK4/cyclin D1 in the presence of P2short): 5 ± 2 nM | Kd ([7]; no peptide, read-out: Kd of mant-ATP for CDK4/cyclin D1 complex alone): 27 ± 13 nM

CC[C@H](C)[C@H](NC(=O)[C@@H]1CCCN1C(=O)[C@H](CC(C)C)NC(=O)[C@H](CS)NC(C)=O)C(=O)N[C@@H](CO)C(=O)N[C@H](C(=O)N[C@H](C(=O)N[C@@H](CCCNC(=N)N)C(=O)N[C@@]1(C)CCCC=CCCC[C@@](C)(C(=O)N[C@@H](CCCNC(=N)N)C(=O)N[C@@H](CCCNC(=N)N)C(=O)N[C@@H](CC(C)C)C(N)=O)NC(=O)[C@H](CC(C)C)NC(=O)[C@H](C)NC(=O)[C@H](C(C)C)NC1=O)C(C)C)[C@@H](C)O [P2short] (Ac-CLPISTVR[S5]VAL[S5]RRL-NH2; staple 9-13)
helicity [1]: 77% | Kd [2]: 56 ± 19 nM

CC[C@H](C)[C@H](NC(=O)[C@@H]1CCCN1C(=O)[C@H](CC(C)C)NC(=O)CNC(C)=O)C(=O)N[C@@]1(C)CCCC=CCCC[C@@](C)(C(=O)N[C@H](C(=O)N[C@@H](C)C(=O)N[C@@H](CC(C)C)C(=O)N[C@@]2(C)CCCC=CCCC[C@@](C)(C(=O)N[C@@H](C)C(=O)N[C@@H](Cc3ccccc3)C(=O)N[C@@H](CCC(=O)O)C(N)=O)NC(=O)[C@H](CC(C)C)NC(=O)[C@H](CCCNC(=N)N)NC(=O)[C@H](CCCNC(=N)N)NC2=O)C(C)C)NC(=O)[C@H](CCCNC(=N)N)NC(=O)[C@H](C(C)C)NC(=O)[C@H]([C@@H](C)O)NC1=O [P4] (Ac-GLPI[S5]TVR[S5]VAL[S5]RRL[S5]AFE-NH2; staple 5-9, 13-17)
helicity [1]: 26% | Kd [2]: 109 ± 29 nM

GST-cyclin D1 (from UniProt P24385 1-295) (natural protein)
Kd [8]: 43 nM

CC[C@H](C)[C@H](NC(=O)[C@@H]1CCCN1C(=O)[C@H](CC(C)C)NC(=O)CNC(C)=O)C(=O)N[C@@H](CO)C(=O)N[C@H](C(=O)N[C@H](C(=O)N[C@@H](CCCNC(=N)N)C(=O)N[C@@]1(C)CCCC=CCCC[C@@](C)(C(=O)N[C@@H](CCCNC(=N)N)C(=O)N[C@@H](CCCNC(=N)N)C(=O)N[C@@H](CC(C)C)C(=O)N[C@@H](CCC(=O)O)C(=O)N[C@@H](C)C(=O)N[C@@H](Cc2ccccc2)C(=O)N[C@@H](CCC(=O)O)C(N)=O)NC(=O)[C@H](CC(C)C)NC(=O)[C@H](C)NC(=O)[C@H](C(C)C)NC1=O)C(C)C)[C@@H](C)O [P2] (Ac-GLPISTVR[S5]VAL[S5]RRLEAFE-NH2; staple 9-13)
helicity [1]: 55% | Kd [2]: 245 ± 84 nM

B1: TP2-Rho-labelled P2short stapled peptide (peptide)
chain: Ac-C(TP2‑Rho)GLPISTVR[S5]VAL[S5]RRL-NH2
modifications: staple 10-14; reading uncertain
Kd [9]: 10 nM | Kd [10]: 47 nM | Kd [11]: 12 nM | Kd [12]: 25 nM
